This assay addresses FGF receptor (FGFR) on Swiss 3T3 cells. Nature of the assay: cell-based or functional assay.

For the substance basic FGF (ligand), the EC50 of mitogenesis (BrdU incorporation) in Swiss 3T3 cells with 15 U/ml heparin amounted to 140 pM.

For the origin of these results see patent publication US20040054131A1.
